Article PMC3549664

B1: keratin 18 (K18, hK18): K18 S30/31/49A (Gly−) (protein)
parent chain: MSFTTRSTFSTNYRSLGSVQAPSYGARPVSSAASVYAGAGGSGSRISVSRSTSFRGGMGSGGLATGIAGGLAGMGGIQNEKETMQSLNDRLASYLDRVRSLETENRRLESKIREHLEKKGPQVRDWSHYFKIIEDLRAQIFANTVDNARIVLQIDNARLAADDFRVKYETELAMRQSVENDIHGLRKVIDDTNITRLQLETEIEALKEELLFMKKNHEEEVKGLQAQIASSGLTVEVDAPKSQDLAKIMADIRAQYDELARKNREELDKYWSQQIEESTTVVTTQSAEVGAAETTLTELRRTVQSLEIDLDSMRNLKASLENSLREVEARYALQMEQLNGILLHLESELAQTRAEGQRQAQEYEALLNIKVKLEAEIATYRRLLEDGEDFNLGDALDSSNSMQTIQKTTTRRIVDGKVVSETNDTKVLRH
B2: keratin 18 (K18, hK18): K18 Gly− (protein)
parent chain: MSFTTRSTFSTNYRSLGSVQAPSYGARPVSSAASVYAGAGGSGSRISVSRSTSFRGGMGSGGLATGIAGGLAGMGGIQNEKETMQSLNDRLASYLDRVRSLETENRRLESKIREHLEKKGPQVRDWSHYFKIIEDLRAQIFANTVDNARIVLQIDNARLAADDFRVKYETELAMRQSVENDIHGLRKVIDDTNITRLQLETEIEALKEELLFMKKNHEEEVKGLQAQIASSGLTVEVDAPKSQDLAKIMADIRAQYDELARKNREELDKYWSQQIEESTTVVTTQSAEVGAAETTLTELRRTVQSLEIDLDSMRNLKASLENSLREVEARYALQMEQLNGILLHLESELAQTRAEGQRQAQEYEALLNIKVKLEAEIATYRRLLEDGEDFNLGDALDSSNSMQTIQKTTTRRIVDGKVVSETNDTKVLRH

Columns and labels:
[1] = survival after PUGNAc then Fas antibody; settings: glycan lost; control: FVB/n and hK18 WT mice
[2] = Coomassie of high salt extract, hK18 blot; settings: glycan lost; control: hK18-WT mouse line
[3] = gross appearance, histology, Oil red O, PAS, insulin stain; settings: glycan lost; control: hK18 WT mice
[4] = immunofluorescence of liver and pancreas, basal; settings: glycan lost; control: hK18 WT mice
anti-K18 pS53 blot = settings: glycan lost; control: K18 WT transfectants

| Protein | other: mouse lethality after PUGNAc/Fas [1] | expression_or_secretion [2] | other: tissue injury after STZ [3] | other: keratin filament organisation [4] | other: K18 S34/S53 phosphorylation (anti-K18 pS53 blot) |
| --- | --- | --- | --- | --- | --- |
| B1 | increases | no change | increases | no change | – |
| B2 | – | – | – | – | no change |
